Test results published in PMC9700037, “Inflammasome sensor NLRP1 disease variant M1184V promotes autoproteolysis and DPP9 complex formation by stabilizing the FIIND domain” (The Journal of Biological Chemistry, 2022).
Where a chain is given by its changes, count along the chain named. In names and notes the source's numbering stands.

T1: biotin-MBP-NLRP1 M1184V (Avi-MBP-tev-NLRP1 M1184V) (human, UniProt Q9C000 1-1473, M1184V, biotin (on the Avi tag, BirA co-expressed))
T1 construct: NLRP1, human, isoform 1, residues 1-1473, natural variant M1184V; also called M1184VSf9; source: Sf9 insect cells, co-expressed with BirA, purified (multimer or void SEC fraction); not shown: Avi, N-terminal, kept; MBP, N-terminal, kept
T1 sequence (looked up): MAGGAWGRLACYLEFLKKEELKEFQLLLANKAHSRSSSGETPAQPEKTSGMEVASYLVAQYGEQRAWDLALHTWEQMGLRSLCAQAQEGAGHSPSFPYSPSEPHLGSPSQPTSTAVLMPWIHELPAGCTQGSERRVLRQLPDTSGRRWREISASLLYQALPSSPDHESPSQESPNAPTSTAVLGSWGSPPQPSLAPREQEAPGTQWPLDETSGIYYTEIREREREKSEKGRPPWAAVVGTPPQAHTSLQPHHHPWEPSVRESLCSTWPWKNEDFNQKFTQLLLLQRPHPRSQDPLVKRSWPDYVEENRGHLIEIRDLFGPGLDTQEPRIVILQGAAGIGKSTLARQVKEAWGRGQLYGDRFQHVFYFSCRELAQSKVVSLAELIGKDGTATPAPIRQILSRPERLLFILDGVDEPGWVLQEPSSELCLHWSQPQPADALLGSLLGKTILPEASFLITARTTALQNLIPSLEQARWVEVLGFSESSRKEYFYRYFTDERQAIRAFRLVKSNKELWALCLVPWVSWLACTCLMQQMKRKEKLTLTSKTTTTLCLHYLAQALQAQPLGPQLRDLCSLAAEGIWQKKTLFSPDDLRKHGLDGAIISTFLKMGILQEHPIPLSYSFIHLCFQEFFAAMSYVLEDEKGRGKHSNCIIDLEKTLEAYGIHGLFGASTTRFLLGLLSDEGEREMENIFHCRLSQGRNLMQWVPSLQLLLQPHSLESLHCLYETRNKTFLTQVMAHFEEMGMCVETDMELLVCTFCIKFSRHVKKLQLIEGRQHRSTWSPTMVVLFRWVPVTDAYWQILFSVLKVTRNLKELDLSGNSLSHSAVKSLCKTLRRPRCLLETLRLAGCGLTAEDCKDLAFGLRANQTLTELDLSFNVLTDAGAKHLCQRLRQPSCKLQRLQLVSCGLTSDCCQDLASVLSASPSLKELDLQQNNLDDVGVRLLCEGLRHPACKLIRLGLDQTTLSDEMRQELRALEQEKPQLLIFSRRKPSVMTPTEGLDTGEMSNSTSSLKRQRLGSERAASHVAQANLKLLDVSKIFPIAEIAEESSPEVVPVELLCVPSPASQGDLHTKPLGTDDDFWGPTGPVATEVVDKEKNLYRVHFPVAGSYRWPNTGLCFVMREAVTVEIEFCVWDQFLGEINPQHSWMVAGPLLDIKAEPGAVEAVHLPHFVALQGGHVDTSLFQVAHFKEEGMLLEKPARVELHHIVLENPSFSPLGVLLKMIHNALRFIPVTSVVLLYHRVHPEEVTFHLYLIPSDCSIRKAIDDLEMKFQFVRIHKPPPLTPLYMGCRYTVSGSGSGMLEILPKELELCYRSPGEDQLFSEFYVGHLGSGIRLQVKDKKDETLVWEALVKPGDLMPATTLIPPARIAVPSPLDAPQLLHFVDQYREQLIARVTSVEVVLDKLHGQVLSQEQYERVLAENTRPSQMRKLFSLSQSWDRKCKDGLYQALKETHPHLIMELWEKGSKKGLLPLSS

T2: Biotin-FLAG-NLRP1 M1184V (human, UniProt Q9C000 1-1473, M1184V, biotin)
T2 construct: NLRP1 full length, natural variant M1184V; the construct for purification from HEK293T and its biotinylation are not described in the methods; also called M1184VHEK; source: HEK293T cells, purified
T2 sequence (looked up): T1 sequence (looked up)

T3: C-terminal cleavage fragment (UPA) of NLRP1-FIIND (human, UniProt Q9C000 1213-1376)
T3 construct: NLRP1, human, isoform 1; from the autolytic cleavage site (S1213) to the end of the FIIND construct (1376); source: Sf9 insect cells, purified; arises by autoproteolysis of the FIIND construct
T3 sequence (looked up): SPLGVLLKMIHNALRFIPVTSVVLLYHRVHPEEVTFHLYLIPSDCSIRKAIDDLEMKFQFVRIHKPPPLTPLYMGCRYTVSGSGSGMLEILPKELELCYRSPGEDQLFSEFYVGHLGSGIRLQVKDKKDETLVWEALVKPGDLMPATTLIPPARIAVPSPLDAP

B1: NLRP1-FIIND (wt) (domain or fragment, human, UniProt Q9C000 1064-1376, looked up)
chain: SQGDLHTKPLGTDDDFWGPTGPVATEVVDKEKNLYRVHFPVAGSYRWPNTGLCFVMREAVTVEIEFCVWDQFLGEINPQHSWMVAGPLLDIKAEPGAVEAVHLPHFVALQGGHVDTSLFQMAHFKEEGMLLEKPARVELHHIVLENPSFSPLGVLLKMIHNALRFIPVTSVVLLYHRVHPEEVTFHLYLIPSDCSIRKAIDDLEMKFQFVRIHKPPPLTPLYMGCRYTVSGSGSGMLEILPKELELCYRSPGEDQLFSEFYVGHLGSGIRLQVKDKKDETLVWEALVKPGDLMPATTLIPPARIAVPSPLDAP
notes: NLRP1 FIIND domain (ZU5-UPA), human, residues 1064-1376 of isoform 1; GST is still on the protein during the GST pull-down of the co-expression experiments and is cut off by TEV before SEC, SEC-MALS and SPR; also called wt FIIND protein; NLRP1 FIIND domain; source: also co-expressed with His6-DPP9 and SUMO-UPA in Sf9; not shown: GST, N-terminal, cleaved
B2: NLRP1-FIIND (M1184V S1213A) (domain or fragment, human, UniProt Q9C000 1064-1376, looked up)
chain: B1 chain with M121V, S150A
notes: NLRP1 FIIND domain, human, residues 1064-1376 of isoform 1, M1184V and S1213A; Uncleaved single chain; GST kept during the GST pull-down of the co-expression, cut off by TEV afterwards; also called cleavage-deficient FIIND mutant (M1184V–S1213A); source: also co-expressed with His6-DPP9 in Sf9; not shown: GST, N-terminal, cleaved
B3: NLRP1-FIIND (M1184V) (domain or fragment, human, UniProt Q9C000 1064-1376, looked up)
chain: B1 chain with M121V
notes: NLRP1 FIIND domain (ZU5-UPA), human, residues 1064-1376 of isoform 1, natural variant M1184V; Mostly autocleaved between F1212 and S1213, the fragments stay together; GST is still on the protein during the GST pull-down of the co-expression experiments and is cut off by TEV before SEC, SEC-MALS and SPR; also called M1184V variant FIIND; source: also co-expressed with His6-DPP9 with or without …
B4: NLRP1-FIIND (M1184V–P1214R) (domain or fragment, human, UniProt Q9C000 1064-1376, looked up)
chain: B1 chain with M121V, P151R
notes: NLRP1 FIIND domain, human, residues 1064-1376 of isoform 1, M1184V and P1214R; they were combined here by mutagenesis; also called M1184V–P1214R double mutation; not shown: GST, N-terminal, cleaved
B5: NLRP1-FIIND (P1214R) (domain or fragment, human, UniProt Q9C000 1064-1376, looked up)
chain: B1 chain with P151R
notes: NLRP1 FIIND domain, human, residues 1064-1376 of isoform 1, patient mutation P1214R; not shown: GST, N-terminal, cleaved
B6: NLRP1-FIIND (S1213A) (domain or fragment, human, UniProt Q9C000 1064-1376, looked up)
chain: B1 chain with S150A
notes: NLRP1 FIIND domain, human, residues 1064-1376 of isoform 1, S1213A (no autoproteolysis); Uncleaved single chain; also called autoproteolysis-deficient NLRP1-FIIND; not shown: GST, N-terminal, cleaved
B7: His6-tev-DPP9 (enzyme, UniProt Q86TI2 1-863, looked up)
chain: MATTGTPTADRGDAAATDDPAARFQVQKHSWDGLRSIIHGSRKYSGLIVNKAPHDFQFVQKTDESGPHSHRLYYLGMPYGSRENSLLYSEIPKKVRKEALLLLSWKQMLDHFQATPHHGVYSREEELLRERKRLGVFGITSYDFHSESGLFLFQASNSLFHCRDGGKNGFMVSPMKPLEIKTQCSGPRMDPKICPADPAFFSFINNSDLWVANIETGEERRLTFCHQGLSNVLDDPKSAGVATFVIQEEFDRFTGYWWCPTASWEGSEGLKTLRILYEEVDESEVEVIHVPSPALEERKTDSYRYPRTGSKNPKIALKLAEFQTDSQGKIVSTQEKELVQPFSSLFPKVEYIARAGWTRDGKYAWAMFLDRPQQWLQLVLLPPALFIPSTENEEQRLASARAVPRNVQPYVVYEEVTNVWINVHDIFYPFPQSEGEDELCFLRANECKTGFCHLYKVTAVLKSQGYDWSEPFSPGEDEFKCPIKEEIALTSGEWEVLARHGSKIWVNEETKLVYFQGTKDTPLEHHLYVVSYEAAGEIVRLTTPGFSHSCSMSQNFDMFVSHYSSVSTPPCVHVYKLSGPDDDPLHKQPRFWASMMEAASCPPDYVPPEIFHFHTRSDVRLYGMIYKPHALQPGKKHPTVLFVYGGPQVQLVNNSFKGIKYLRLNTLASLGYAVVVIDGRGSCQRGLRFEGALKNQMGQVEIEDQVEGLQFVAEKYGFIDLSRVAIHGWSYGGFLSLMGLIHKPQVFKVAIAGAPVTVWMAYDTGYTERYMDVPENNQHGYEAGSVALHVEKLPNEPNRLLILHGFLDENVHFFHTNFLVSQLIRAGKPYQLQIYPNERHSIRCPESGEHYEVTLLHFLQEYL
notes: dipeptidyl peptidase 9 (DPP9); Dimer by SEC-MALS (192 kDa); also called His6-DPP9; source: Sf9 insect cells, purified; also co-expressed with GST-tev-FIIND constructs in Sf9 and co-purified
B8: N-terminal cleavage fragment (ZU5) of NLRP1-FIIND wt (domain or fragment, human, UniProt Q9C000 1064-1212, looked up)
chain: SQGDLHTKPLGTDDDFWGPTGPVATEVVDKEKNLYRVHFPVAGSYRWPNTGLCFVMREAVTVEIEFCVWDQFLGEINPQHSWMVAGPLLDIKAEPGAVEAVHLPHFVALQGGHVDTSLFQMAHFKEEGMLLEKPARVELHHIVLENPSF
notes: NLRP1, human, isoform 1; from the start of the FIIND construct (1064) to the autolytic cleavage site (peptide bond F1212-S1213); source: Sf9 insect cells, purified; arises by autoproteolysis of the FIIND construct; not shown: GST, N-terminal, cleaved
B9: N-terminal cleavage fragment (ZU5) of NLRP1-FIIND M1184V (domain or fragment, human, UniProt Q9C000 1064-1212, looked up)
chain: B8 chain with M121V
notes: NLRP1, human, isoform 1, natural variant M1184V; from the start of the FIIND construct (1064) to the autolytic cleavage site (peptide bond F1212-S1213); source: Sf9 insect cells, purified; arises by autoproteolysis of the FIIND construct; not shown: GST, N-terminal, cleaved

How the values were obtained:
[1] = biological target: the molecule itself; assay: SEC; purified FIIND proteins after removal of GST by TEV, Superose 6 increase (10/300) GL, 0.5 ml/min; fractions checked by SDS-PAGE
[2] = biological target: T4, Intracellularly biotinylated Avi-His6-tev-DPP9 (UniProt Q86TI2 1-863, biotin (on the Avi tag)); assay: SPR; biotinylated Avi-His6-tev-DPP9 immobilised on a Series S SA chip (Biacore 8K); monomeric fraction of FIIND proteins (or GST) injected, single-cycle kinetics, 78.125-5000 nM (S1213A from 39.06 nM), 10 mM Hepes pH 7.5, 150 mM NaCl, 0.5 mM TCEP, 0.05% Tween-20; conditions: both partners purified
T4 construct: dipeptidyl peptidase 9 (DPP9); also called biotin-DPP9; immobilized DPP9; source: Sf9 insect cells, intracellularly biotinylated, purified; not shown: Avi, N-terminal, kept; His6, N-terminal, kept

[3] = biological target: T4, Intracellularly biotinylated …; assay: SPR; as a3, with 100 μM Val-boroPro (VbP) present in all dilutions of the FIIND domain; conditions: both partners purified
NLRP1-FIIND (M1184V) = biological target: B3; assay: SEC-MALS; co-eluting SEC fractions of FIIND, DPP9 and free UPA co-expressed in Sf9 and co-purified; 0.5-1.0 mg/ml, Superose 6 increase (10/300) GL, buffer A without glycerol; conditions: partners not purified
[4] = biological target: T1, biotin-MBP-NLRP1 M1184V …; assay: SPR; Biotin-FLAG-NLRP1 (from HEK293T) or biotin-MBP-NLRP1 (from Sf9, multimer fraction) or biotin-MBP immobilised on a streptavidin chip; DPP9 injected at 78-2500 nM, single-cycle kinetics, 10 mM Hepes pH 7.5, 150 mM NaCl, 0.5 mM TCEP, 0.05% Tween-20; conditions: both partners purified
Biotin-FLAG-NLRP1 M1184V = biological target: T2, Biotin-FLAG-NLRP1 M1184V; assay: as above; conditions: both partners purified
[5] = biological target: T3, C-terminal cleavage fragment (UPA) of …; assay: SEC; purified FIIND proteins after removal of GST by TEV, Superose 6 increase (10/300) GL, 0.5 ml/min; fractions checked by SDS-PAGE; conditions: both partners purified

B1
binding result [1]: binds
Kd [2]: 1900 nM

B2
Kd [2]: 2900 nM

B3
Kd [3]: 3650 nM
Kd [2]: 3500 nM

B4
Kd [2]: 4500 nM

B5
Kd [2]: 3430 nM

B6
binding result [1]: binds
Kd [2]: 1550 nM

B7
stoichiometry N (NLRP1-FIIND (M1184V)): 2 DPP9 chains per FIIND
Kd [4]: 149 nM
Kd (Biotin-FLAG-NLRP1 M1184V): 144 nM

B8
binding result [5]: binds

B9
binding result [5]: binds
